The values that follow come from patent US20230212554A1.

Substitutions are numbered along the chain they refer to.

B1: NP22 (antibody, V domains shown)
VH: EVQLVESGGGLVQPGGSLRLSCAASGFTISDWSIHWVRQAPGKGLEWVAGIWPYWGSTSYADSVKGRFTISADTSKNTAYLQMNSLRAEDTAVYYCARGFYSWFDYWGQGTLVTVSS
VL: DIQMTQSPSSLSASVGDRVTITCRASQDVFSWVAWYQQKPGKAPKLLISSASSLYSGVPSRFSGSGSGTDFTLTISSLQPEDFATYYCQQSWDYPITFGQGTKVEIKR
B2: NP5 (antibody, V domains shown)
VH: EVQLVESGGGLVQPGGSLRLSCAASGFTISNGSIHWVRQAPGKGLEWVAGIWPSGGSTSYADSVKGRFTISADTINNSAYLQMNSLRAEDTAVYYCARWNYWGQGTLVTVSS
VL: DIQMTQSPSSLSASVGDRVTITCRASQDVGWSVAWYQQKPGKAPKLLIYGSRWLYSGVPSRFSGSGSGTDFTLTISSLQPEDFATYYCQQGYNGPLTFGQGTKVEIKR
B3: NP6 (antibody, V domains shown)
VH: EVQLVESGGGLVQPGGSLRLSCAASGFTINDGSIHWVRQAPGKGLEWVAGIGPFGGFTYYADSVKGRFTISADTSKNTAYLQMNSLRAEDTAVYYCARSGYSGSFDYWGQGTLVTVSS
VL: B2 VL with G30Y, W31F, S32G, S51T, R52S, W53Y, G91F, Y92S, G94W, L96I
B4: NP19 (antibody, V domains shown)
VH: EVQLVESGGGLVQPGGSLRLSCAASGFTISSWGIHWVRQAPGKGLEWVAGIGPFWGYTSYADSVKGRFTISADTSKNTAYLQMNSLRAEDTAVYYCARFGVDNYGYMDYWGQGTLVTVSS
VL: DIQMTQSPSSLSASVGDRVTITCRASQDVSGWVAWYQQKPGKAPKLLISWSTGLYSGVPSRFSGSGSGTDFTLTISSLQPEDFATYYCQQYFNFPVTFGQGTKVEIKR
B5: NP15 (antibody, V domains shown)
VH: EVQLVESGGGLVQPGGSLRLSCAASGFTISNWYIHWVRQAPGKGLEWVAGIGPYGGSTYYADSVKGRFTISADTSKNTAYLQMNSLRAEDTAVYYCARFHWDHLHGMDYWGQGTLVTVSS
VL: B4 VL with S30D, G31N, W32N, W50Y, F92W, F94Y, V96I
B6: NP16 (antibody, V domains shown)
VH: EVQLVESGGGLVQPGGSLRLSCAASGFTIGNSGIHWVRQAPGKGLEWVAWIGPYWGFTSYADSVKGRFTISADTSKNTAYLQMNSLRAEDTAVYYCARFGNHWHLFMDYWGQGTLVTVSS
VL: B4 VL with S30G, G31S, W32Y, S51T, N93S, F94Y
B7: NP21 (antibody, V domains shown)
VH: EVQLVESGGGLVQPGGSLRLSCAASGFTINGYGIHWVRQAPGKGLEWVAGIWPYGGSTFYADSVKGRFTISADTSKNTAYLQMNSLRAEDTAVYYCARFYNNHGGIMDYWGQGTLVTVSS
VL: B2 VL with G30Y, W31F, S32Y, G91Y, Y92S, G94F, L96V
B8: NP7 (antibody, V domains shown)
VH: EVQLVESGGGLVQPGGSLRLSCAASGFTISNGGIHWVRQAPGKGLEWVAGIGPYGGFTSYADSVKGRFTISADTSKNTAYLQMNSLRAEDTAVYYCARFYSNYYGYHGVMDYWGQGTLVTVSS
VL: B4 VL with S30F, W50Y, T52A, G53S, F94Y, V96L
B9: NP17 (antibody, V domains shown)
VH: B7 VH with N30S, Y32G, G33S, G50S, Y54F, Y100G, N101H, N102G, G104N, G105V
VL: B1 VL with F30G, S31Y, W32S, A51P, S52G, S53G, S91Y, W92Y, I96V
B10: NP3 (antibody, V domains shown)
VH: B7 VH with N30S, G31N, Y54F, S57F, F59S, Y100H, N101W, H103D, G104H, I106Y
VL: B2 VL with S32Y, G50S, S51T, R52T, W53G, G91Y, G94Y, L96I
B11: NP18 (antibody, V domains shown)
VH: EVQLVESGGGLVQPGGSLRLSCAASGFTISGGGIHWVRQAPGKGLEWVASIWPSWGSTSYADSVKGRFTISADTSKNTAYLQMNSLRAEDTAVYYCARFHNGGFLVMDYWGQGTLVTVSS
VL: B2 VL with P8S, W31Y, S32Y, S51P, W53F, G91Y, Y92S, G94W, L96I

Sequence of NP of A/Wisconsin/67/2005(H3N2/H3W) (influenza A virus A/Wisconsin/67/2005 (H3N2)) (P03466 whole entry): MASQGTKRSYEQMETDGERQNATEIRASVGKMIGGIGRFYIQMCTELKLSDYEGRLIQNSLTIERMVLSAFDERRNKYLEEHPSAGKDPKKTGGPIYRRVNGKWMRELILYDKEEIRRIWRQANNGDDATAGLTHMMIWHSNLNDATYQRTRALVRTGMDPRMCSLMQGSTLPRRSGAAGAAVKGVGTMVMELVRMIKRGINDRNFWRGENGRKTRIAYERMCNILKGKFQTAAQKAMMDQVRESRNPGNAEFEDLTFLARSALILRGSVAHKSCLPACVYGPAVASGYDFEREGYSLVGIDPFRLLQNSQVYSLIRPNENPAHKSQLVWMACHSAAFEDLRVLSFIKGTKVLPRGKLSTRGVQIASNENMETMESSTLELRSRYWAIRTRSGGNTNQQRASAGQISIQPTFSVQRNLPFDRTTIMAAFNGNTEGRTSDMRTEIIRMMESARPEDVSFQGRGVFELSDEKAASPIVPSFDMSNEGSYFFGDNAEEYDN

Substrate in the first assay: NP of A/Wisconsin/67/2005(H3N2/H3W) (influenza A virus A/Wisconsin/67/2005 (H3N2))
The experiment in a line: sandwich ELISA, capture IgG; NP of lysed virus titrated; HRP-NP16 detection.
For B1, the EC50 was found to be 91.4 nM.
Turning to B2, the EC50 was 3.13 nM.
With B3, the EC50 is 2.7 nM.
Consider B4, for which the EC50 amounted to 3.88 nM.
B5: the EC50 worked out at 2.52 nM.
On the same count and under the same terms, next, B6: 4.1 nM.
Turning to B7, the EC50 came out at 2.88 nM.
Same read-out and setting: next, B8: 2.26 nM.
Regarding B9, the EC50 came to 3.09 nM.
Regarding B10, the EC50 stood at 1.81 nM.

Substrate in the next assay: NP of A/Wisconsin/67/2005(H3N2/H3W) (influenza A virus A/Wisconsin/67/2005 (H3N2))
The experiment in a line: sandwich ELISA, capture IgG; NP of lysed virus titrated; HRP-NP17 detection.
On to B1, for which the half-maximal effective concentration (EC50) worked out at 82.8 nM.
As to B2, the EC50 was found to be 0.879 nM.
B3: the EC50 came out at 1.98 nM.
As for B11, the EC50 amounted to 1000 nM.
Consider B4, for which the EC50 was 0.765 nM.
In the case of B5, the concentration giving a half-maximal response (EC50) amounted to 0.779 nM.
As for B6, the half-maximal effective concentration (EC50) amounted to 0.891 nM.
Consider B7, for which the EC50 stood at 0.848 nM.
On to B8, for which the EC50 was found to be 0.821 nM.
Take B9: the 50% effective concentration (EC50) came to 1.07 nM.
In the case of B10, the EC50 worked out at 0.828 nM.

Substrate in the next assay: NP of A/Wisconsin/67/2005(H3N2/H3W) (influenza A virus A/Wisconsin/67/2005 (H3N2))
The assay can be described thus: ELISA on virus-infected fixed MDCK cells.
As for B11, the EC50 was 0.192 nM.
On the same count and under the same terms, next, B4: 0.215 nM; B5: 0.449 nM.
Turning to B6, the EC50 amounted to 0.248 nM.
As for B10, the EC50 turned out to be 0.25 nM.
